Source: paper PMC3362532, “Targeting Melanoma Metastasis and Immunosuppression with a New Mode of Melanoma Inhibitory Activity (MIA) Protein Inhibition” (PLoS ONE, 2012)

Assays:
[1] = biological target: T1, human MIA protein labelled for the HTFP assay (MIA-biotin conjugate immobilised; MIA-Ru(bpy)3 in solution) (human, UniProt Q16674 25-131, Ru(bpy)3 (from Ru(bpy)3-isothiocyanate) on the copy in solution; biotin on the immobilised copy; sites not stated); assay: fluorescence polarisation; heterogeneous transition-metal-based fluorescence polarization (HTFP) assay: MIA-biotin immobilised in streptavidin-coated 96 well plates, MIA-Ru(bpy)3 in solution, RT, 250 uL per well, P/P0 against a well without MIA-biotin; peptides at 1.6 uM; conditions: both partners purified
T1 construct: human MIA protein; source: human MIA protein labeled with Ru(bpy)3-isothiocyanate, purified over a size exclusion column (Sephadex G75 M PD-10)
T1 sequence (looked up): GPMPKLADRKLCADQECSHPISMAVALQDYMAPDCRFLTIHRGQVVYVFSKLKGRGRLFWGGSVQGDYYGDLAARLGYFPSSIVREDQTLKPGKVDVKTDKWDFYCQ

[2] = biological target: T2, recombinant human MIA, wild type (human, UniProt Q16674 25-131); assay: NMR titration; 2D 1H-15N HSQC of uniformly 15N-enriched MIA with increasing amounts of AR71, 300 K, pH 7; conditions: both partners purified
T2 construct: The printed residue numbers (C17, C106) fit the mature protein without its signal peptide; The vector may add a His tag; also called wt MIA; wild-type (wt) MIA; source: in vitro expression, Rapid Translation System RTS 500 E. coli HY Disulfide Kit (cell free)
T2 sequence (looked up): T1 sequence (looked up)

Does Ac-FHWRYPLPLPGQ-NH2 [dodecapeptide AR71] bind [1]?
Result: binds

Does Ac-FHWRYPLPLPGQ-NH2 [dodecapeptide AR71] bind [2]?
Result: binds
